From the domain aggregation screens of Martell et al. (2025)

Assay: soluble fraction after stress (log2 fold change); higher = more stays soluble; pooled small domains, quantitative proteomics
Details: stress: pH 4
How it was run: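 Aggregation propensity is estimated from the fold change in each domain's soluble amount after acid stress. Pooled small-domain libraries were stressed at pH 4, and higher log2 values mean more stayed soluble.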

| Sequence | soluble fraction (log2) |
| --- | --- |
| HMIETLGDATFKRLKAMILDGTLEPGTRLSEKKFADHLGVSRTPVREAIGQLVSEGLAKRSAGSAPVVSS | 0.069 |
| HMAVRNTKQKQLVLSLLKNSGRPMTAGEIYRLAVQQYPNIAKSTVYRNLENLVSRGEVSQGMHQNGESFYS | ≥ 0.43 |
| HMDDNMNEQWKMILNSIAKKGSVTRQETEKILGIGQTRAHVLLKAMIHAGMIKAVGDGKKRRYVR | ≥ 0.43 |
| HMQRSVNYSELHEIKERVFDALYSSPMSMPDLLAWLKGDEEHTISVIRLMQDNGDIEMGEDGRLAVV | -0.629 |
| HMPQNVSVPDVTNMTQAEAESKLKEKNLAVGNIIPELSTTVEKDKVTRTNPESGSNVRKNSKVDIYVSQG | 0.327 |
| HMDNEIIEEEKITTLMITHNMRDAIKYGNRLIMLNEGRVIFDISGEEKKNLTVQELLEKFEK | 0.22 |
| HMLYEDVQVPNVRYWKSRDAKKQLEDLGLRVLTEHVNDAYIQSDQVIRTSPEIGDTLRTGDTVTLYVSDG | 0.146 |
| HMAGTRVWSENGQLYVTAAVSGRANVYNVLGKLNRSLTFSAGETKSVSVPAGIYVVSLNNGKAYKVAV | 0.0936 |
| HMKVELSENEKIIYDLLSNQEVLLSEIKDKAELSNKAWDKSTKSLRKLGLVIVEKKDDNIYISKS | 0.368 |
| HMKLPIEKESYRIIWDLEEESFRIRLKISENSPQEEKNILINQAIEDIENITGEPIDKSPYYVLYE | -1.04 |
| HMTSHPTHTILDGKVHVFMRDGSPFWWGGFHFKGKYLRTSTKQKNLDSAKTIAQQWYFQKQTEIASGE | -0.0801 |
| HMGPAYQTQRQEAFAALSEIAAKNPQLMQVAGDLVFRAADFPMADELADRLAKTLPPQLQDKKGQP | -0.313 |
| HMVYFAKNIRHLRRLRGMSQELLAAELDITRARLGAYEESRSEPPLHLLIKISEFFKLPVDIIVKNDLTKS | -0.961 |
| HMSESIFTLYGDEKFEKIRYYLKERGFITLDALARFDFDELLFVPGVSELLISEAKQLFSRYDTSSLAAKE | -0.921 |
| HMREVGVPNLRGLTAEEAQIVLSNAGLNLRTEPIRRVHETITVGRIAEQDPMPDLTIRSQRSVTTWLSSGP | -0.268 |
| HMGITPSIEMILEYFAFKESSETEANKFFNYYSSIGWLVGGKTKMKDWKASARNWIMNQNKFQ | -1.01 |
| HMGFVTVTEVDTTADLKLARVYVSVLGPEEQWAKSFTALESARGFVWNWLRKHLDLRVTPQLAF | -1.74 |
| HMSSYMQMQLERLESLLQKNDLTDSDKYDIRQLVEDLDKVPESVSPNLVGAYMTIKNRYASVLKTVL | -0.835 |
| HMDLATQHAAKVNAAILAARRFEREGSWRQVAAKYSEALQLMPGNEQASRGYQQAMAMLDERD | 0.41 |
| HMASKTGTITATSLNVRSGAATTYSILGTLSNGKTVTIYEESNGWYKINYNGGYGWVSKTYVSTG | -0.105 |
| HMKYRLLGENLQTIRKARGMKQQELADQIGINMQSLSKIERGLNYPTFETLEKIMNALGITPNELLSG | -0.798 |
| HMSTSEQVYTTDKVNVRREADTSSEKLGSLEKGTAISRTGTEGEWSVVNYGGVTGYIKTEFLTTEQPQ | 0.224 |
| HMQDELSSSVIEEAVVVLLLRAANIDGKKDEQEIEAIKRLIIQQFNYDEEKADILITSASEK | -0.191 |
| HMHGTIHSAAYGGDIEAVKKFLAAGADVNANGGGRTPLDLAIQVKNTEIADLLRKHGGKTGDELKA | 0.398 |
| HMAFRLPNGYGTIRRLTGNRRKPYVALVNPTQVFDDEKGTSHYKYDLLGTFAEKIDAYNAVMQYHKSPGGL | -0.223 |
| HMNHTIEENDRVLILDPRGKKYLITVTNRVFHTNLGKLDISELIGKNYGDKIKSHMGKNFSILKPNLIDYI | 0.053 |

| Sequence | soluble fraction (log2) |
| --- | --- |
| HMLTGDVDRYKDFFIALEKTSPVPIGFEKIIGGAHGYYHLEDKRIAIDEGMSELQTLKTAIHEIAHAKLHD | -0.123 |
| HMSVPNVVGRDQVEASSLLESAGFKVSVKQSYSDSVEQGKVISQSPSGSTTVSPGSTVTITVSQ | -0.155 |
| HMTRNGTVTFFNHDKGYGFIKDVLTQESVFVHINSLSEPINEQNKVSFEIEMGPRGSNAINVKLI | -1.86 |
| HMVENMDEFIGRVRRLVSDRLDLLKEASDDEIRETISQVVLELSREQFLTLNEKKTVLEGVFNSMR | -1.38 |
| HMKPLAQQVNDYLAATRTSIATLANEIPGYSRPTISRYLAGKYDGDITTIEKLLAEWLAQRTG | -0.581 |
| HMGVNEGVNKLFKTIQETPGKRMPYYALATDVPEKTIERWLKQLREEGKIEFKGSAKTGGYFVIDK | 0.22 |
| HMNVEVDSIGDDDFLVKVSAGTSTEHRVTLTDAYWEQIWSSSLPKKEIISLSFAFLLEREPNSSIMRT | -0.937 |
| HMRTTYKTRLETLLAGPMSAGDRRFASSLLDFYNRKNRLTPGRARFVAQLEDRYSAEALAARQG | -0.00949 |
| HMSILTELDIGDKVEVVAGPFKGIQANITRIEPVRKEVTVILLDAPYQLPVTVDADYLKIIQKS | -0.0376 |
| HMATPTMEDYIEVIYSLVKTKGYARSADIAEKLEVYPSTVTKMLKKLDAEGYIVYEKYRGIALTDIGKKMG | -0.189 |
| HMGDIFTAEDAKERIDYSGVDGIMLARGIFGNPWLIRDIREYLEYGKILHPVTQLDRVNMAIEHTRKT | -0.25 |
| HMEESEMIAFATVAHRIVGKPVEAVMRSYRNRDNIPADIAAIVSSKFTFSVTMAEASYRNPKKSYQVNSII | 0.22 |
| HMYIENIGDYLKSHDIKPSYQRIKVFEYLMQHKNHPTVDMIYKSLVDEIPTLSKTTVYNTLNLFIEKQI | 0.0963 |
| HMLTQEEITRRRGEILTAAMGVILRKGFLETSMREIAEAAGVGKSTLYDYFPSKDEIMIAYVVD | -0.869 |
| HMSKYGIAYSEVLEILKHIPIEDYNKIPRNEIELFETYADKDFTFNYDSSKTLEEQNVSNITKGIIIL | -0.465 |
| HMKQNVEAVIKERAIEKARAQVKAVSTHMALEAQSLSKEQLEFEIERIAAQIIDKMPSDFWND | -0.819 |
| HMYLHSEFSPVTGQELHMKYDDSSTEEDPVMLVEGKDIQGNDFVKKIHLNDVDPENATPAEMTALRVHL | -0.507 |
| HMAGAPANLAARLREQILQGAYHDGQRLPAERHLAAEHGVSRGTVREALRLLEQGALLTRKRGSGSYVTYP | 0.006 |
| HMRRSKQERQQAIKTLISNEQIQRQEDLVRKLNEAGWEVTQATISRDITEMQLVKVPLPTGGFAYAVM | -0.31 |
| HMPFREGDEVFVELVEPHMYNEDDAVAKLDGYVVAVRGAAGLVGQKVLVRIERVGRSSAEATLVA | -0.451 |
| HMNRPQDLGEPYDGQFREHPEAWAFYAAQSPSYRRSASWWVLGAKQEVTRQRRLAALIDASAQGTRIPALT | -0.0491 |
| HMDMNVQNYRGLSLDRAKKLISDLGLKYEVVGTGDSVVKQVPSSGSRMSKENGRIILYTENVEDA | 0.278 |
| HMQISDSSLIAKTVATVILENPEAVSDYLGGKHSVVRFMVGQIMKKTQGKANPKMATEMLETALNDL | 0.352 |
| HMHEAILNQIRNEELMLYIGELSDAQQDVILLKYFHQMTFKEIAESFSIPISTVKTRHTAALKKLSTLWK | 0.0907 |
| HMKRIFEKKVVTESLNGLRLDKAAATLFADFSRNELGQWIKDEALLVNGKAKKVKEKVSEGDVLALDVELI | 0.0389 |
| HMSGFFVYPNPAKSNIIHFPNKKSFYIYDTSGRLLIEGKGKDFIDVSTLDRGVYLLKTFENDIVKIII | -0.585 |

| Sequence | soluble fraction (log2) |
| --- | --- |
| HMSSVRDNGDLELVPGDRIRHDDYGEGRVTAVTGVGSKRIAHAVFDSVGERKLLIKLSPIEKI | 0.235 |
| HMSLREKNKARTRTAILNAARDLAKQGQWDAITTRQIADAAGVSYQTLYNYYPSKASILVEMLL | -0.219 |
| HMEAQAHYDAIYKAHPNADSIAQSAEFKAWVDAQPSVVRNAYWQLFDPKEGGTAEQIVEVFDAFVKSS | -1.83 |
| HMKKERITWDERLERFAKYITENESLPYPSSKEHAWFEENKALYDAGELESVRAQSFSFLLKILRRMNLI | -0.449 |
| HMFVGVDMAVKEEIGKEGVAFTDLRPAGKVSIGDDVYDAVSETGAFITRGTSVRVLKYQAGQVYVVK | 0.354 |
| HMTGNWRQMHKVKSKETIYGIAKEYGITVDELTKANPGMEAPGYTLKKGDYIFIPYATADANV | 0.0315 |
| HMELEAFPNPTDMFLSFTTKEKTPLAIYDINGKQVLYVEQITSSSKINVSKLSEGVYFAKTNQGTVKWVK | -0.46 |
| HMGTSSAEIAAELRAQIFAGELRPGEMLPSAREITGTWNVAIATASRVHALLRSEGLATPVPGVGTVVAT | -0.17 |
| HMTELSLSEQAYQQLRRMIVRLDFAPGDVLREEALQEALGMSRTPIREALQRLAREHFVTVIPRRGMFVS | -1.22 |
| HMGLVLIDSYNDIGSAKLITNKIRNLGLIFEENENKINVFAGPFEKNDINLKIDFLIRNGYTNAQLY | -1.92 |
| HMSGEVLTAVVPETASGERLDKVLPQIFPPYSRSQLQTWLKEGRVTLDREIPAARLAVIGGETLRLEVPSL | -0.0494 |
| HMFFAGLSPEAARTLDSLPLHSWSSVEQIARQAGLNIETVRKELGLLELSGIALSRQGRFRRA | 0.0761 |
| HMDFTPDQIARLDDIISRYKDKPGGLIPVLEEAQVALEYLPIGVQKRIAKGLNLPLSRVYGVVTFYSFFTM | -0.451 |
| HMIAAPFVVKDIRVDGVQPATGEAIISSLPVKVGQTATDADVSNVVRQLFSLNRFQNVQATREGNTLVIKV | 0.0417 |
| HMSERQTGTVKWFNNAKGFGFITMADRPDDIFVHFRAIQGDGYRSLNEGEEVEFSLVEGPKGLQAEEVTK | -1.09 |
| HMIGVNMEKSTVEKFANELNLPIDLLLKQLESAGIKKTSGAEELLEADKSALLNYLQIEHGA | -0.678 |
| HMFERIYVFSRDGDIIELPKGSTVLDFAYHVHTHVGNRAQAARVNKRYVPLTYQLKTGEQVEIIIS | -1.05 |
| HMTSPRRLYALIVEHVGKDGVMHRSDVENVLAKVESEMDVDDLLDQLEINGTIIRRQDGTWQLL | -1.66 |
| HMGLAGVQSDVKVSFDGDLLVVTSDIARSFNLFAVDGRLIRSVNLIAGRNEIRGLERGFYLAEKQKIFV | -1.36 |
| HMEYDEVVVVKQIIPKGKNTMVAHLKHLKEHGETGFLKQAVGYLKLHASEIPFSVDAVISEVH | -0.0529 |
| HMREEMYGLIGFITTSEVTDTFGQMEIKLENEPEMRINVRTNPGESLARGDAAKIISFNNSNGTFLVELTK | -0.564 |
| HMSVPEDLYFRELEVEGNKVRISGIASTNNRVSALMRNFDQSEWFRDPSLIKVESKSPGVNEFEIVMTRI | -0.761 |
| HMNTIIHPIRLAYVDSGSIKSMAEQAEIDVKILTSEANSQIFWAIGDEKQIDRLYNLISQVDIIQNK | -1.42 |
| HMTDFLKTRIDTLGLSTRTLNALSEANVRTIGGIARKKQEDLLEIDGIGEKGIQEIKKMLGEYGITL | -0.52 |
